Reference: patent publication US20220195057A1 (LANOVA MEDICINES, published 2022)

Experiments:
[1] = target: human chemokine (C-C motif) receptor 8 (CCR8) protein (human) (UniProt P51685); test: flow cytometry, high-CCR8-expressing U2OS cells
[2] = target: human chemokine (C-C motif) receptor 8 (CCR8) protein (human) (UniProt P51685); test: flow cytometry, low-CCR8-expressing Jurkat cells
[3] = target: T1, human chemokine (C-C motif) receptor 8 (CCR8) protein (human, UniProt P51685 1-355); test: cell-based or functional assay
[4] = target: T1, human chemokine (C-C motif) receptor 8 …; test: cell binding, CCR8-expressing U2OS cells, curve fit; design: LogEC50: unit not given here
[5] = target: T1, human chemokine (C-C motif) receptor 8 …; test: cell binding, CCR8-expressing CHO-K1 cells, curve fit; design: LogEC50: unit not given here
[6] = target: T1, human chemokine (C-C motif) receptor 8 …; test: as above; design: LogEC50: unit not given here; remark: listed apart in the source
[7] = target: T1, human chemokine (C-C motif) receptor 8 …; test: cell binding, CCR8-expressing U2OS cells, curve fit; design: LogEC50: unit not given here; remark: listed apart in the source

isotype control (antibody) gave a Max (MFI) [1] of 215 MFI and a Max (MFI) [2] of 134 MFI.

B1: LM-108-vc-MMAE (other)
VH: EVQLVESGGGLVQPGGSLKLSCAASGFTFNTYAMNWVRQASGKGLEWVARIRSKANNYATYYADSVKDRFTISRDDSKNTLYLQMNNLKTEDTAVYYCVRDRSRGEDYAMDYWGQGTLVTVSS
VL: DIVMTQSPLSLPVTPGEPASISCRSSKSLLHSNANTYLYWFLQKPGQSPQLLIYRMSNLASGVPDRFSGSGSGTAFTLKISRVEAEDVGVYYCMQHLEYPFTFGQGTKLEIK
modifications: vc-MMAE (monomethyl auristatin E) conjugated to the antibody; site and drug number not stated
B1 was tested, and the “cytotoxicity IC50 (Cell-Titer-Glo viability, 96 hours)” value [3] was 528 pM.

B2: 137-xi (antibody, V domains shown)
VH: EVQLVESGGGLVQPKGSLKLSCTASGFTFNTYAMNWVRQAPGKGLEWVARIRSKANNYATYYADSVKDRFTISRDDSQRILYLQMNNLKAEDTAMYYCVRDRSRGEDYAMDYWGQGTSVTVSS
VL: DIVMTQAAPSVPVTPGESVSISCRSSKSLLHSNGNTYLYWFLQRPGQSPQLLIYRMSNLASGVPDRFSGSGSGTAFTLRISRVEAEDVGVYYCMQHLEYPFTFGAGTKLELK
notes: also called 137D1H10; chimeric 137D1H10
B2 showed a Bottom [4] of 2170, a LogEC50 [4] of -0.605 and a Span [4] of 31300. It also gave a Top [4] of 33400, a Bottom [5] of 3030 and a LogEC50 [5] of -0.779. It also gave a Span [5] of 31900 and a Top [5] of 34900.

B3: 88-H2L2 (antibody, V domains shown)
VH: EVQLVESGGGLVQPGGSLKLSCAASGFTFNPNAMNWVRQASGKGLEWVGRIRSKSNNYATYYADSVKDRFTISRDDSKNTAYLQMNNLKTEDTAVYYCVRGKDDGYRHYAMDYWGQGTTVTVSS
VL: DIVMTQSPLSLPVTPGEPASISCRSSKSLLHSNANTYLYWFLQKPGQSPQLLIYRMSNLASGVPDRFSGSGSGTAFTLKISRVEAEDVGVYYCMQHLEYPFTFGGGTKVEIK
notes: Humanized 88D2C6
With B3 the Bottom [6] was 2490, the LogEC50 [6] was -0.639 and the Span [6] was 30300. The Top [6] was 32800, the Bottom [7] was 2760 and the LogEC50 [7] was -0.724. It also gave a Span [7] of 25600 and a Top [7] of 28300.

B4: 137-H2L2 (antibody, V domains shown)
VH: EVQLVESGGGLVQPGGSLKLSCAASGFTFNTYAMNWVRQASGKGLEWVGRIRSKANNYATYYADSVKDRFTISRDDSKNTAYLQMNNLKTEDTAVYYCVRDRSRGEDYAMDYWGQGTLVTVSS
VL: DIVMTQSPLSLPVTPGEPASISCRSSKSLLHSNANTYLYWFLQKPGQSPQLLIYRMSNLASGVPDRFSGSGSGTAFTLKISRVEAEDVGVYYCMQHLEYPFTFGQGTKLEIK
notes: Humanized 137D1H10
Molecule B4 has a Bottom [4] of 915, a LogEC50 [4] of -0.842 and a Span [4] of 25300. For the same molecule, the Top [4] was 26300, the Bottom [5] was 2550 and the LogEC50 [5] was -0.789. It also gave a Span [5] of 26800 and a Top [5] of 29300.

B5: 88-H3L3 (antibody, V domains shown)
VH: EVQLVESGGGLVQPGGSLKLSCAASGFTFNPNAMNWVRQASGKGLEWVARIRSKSNNYATYYADSVKDRFTISRDDSKNTLYLQMNNLKTEDTAVYYCVRGKDDGYRHYAMDYWGQGTTVTVSS
VL: DIVMTQAPLSLPVTPGEPVSISCRSSKSLLHSNANTYLYWFLQKPGQSPQLLIYRMSNLASGVPDRFSGSGSGTAFTLKISRVEAEDVGVYYCMQHLEYPFTFGGGTKLEIK
notes: Humanized 88D2C6
B5 showed a Bottom [6] of 3470, a LogEC50 [6] of -0.583 and a Span [6] of 28700. For the same molecule, the Top [6] was 32200, the Bottom [7] was 1620 and the LogEC50 [7] was -0.629. For the same molecule, the Span [7] was 25800 and the Top [7] was 27400.

B6: 88-H2L3 (antibody, V domains shown)
VH: EVQLVESGGGLVQPGGSLKLSCAASGFTFNPNAMNWVRQASGKGLEWVGRIRSKSNNYATYYADSVKDRFTISRDDSKNTAYLQMNNLKTEDTAVYYCVRGKDDGYRHYAMDYWGQGTTVTVSS
VL: DIVMTQAPLSLPVTPGEPVSISCRSSKSLLHSNANTYLYWFLQKPGQSPQLLIYRMSNLASGVPDRFSGSGSGTAFTLKISRVEAEDVGVYYCMQHLEYPFTFGGGTKLEIK
notes: Humanized 88D2C6
For B6, the Bottom [6] was 2280, the LogEC50 [6] was -0.546 and the Span [6] was 29300. The Top [6] was 31600, the Bottom [7] was 1530 and the LogEC50 [7] was -0.512. The Span [7] was 24200 and the Top [7] was 25800.

B7: 137-H2L3 (antibody, V domains shown)
VH: EVQLVESGGGLVQPGGSLKLSCAASGFTFNTYAMNWVRQASGKGLEWVGRIRSKANNYATYYADSVKDRFTISRDDSKNTAYLQMNNLKTEDTAVYYCVRDRSRGEDYAMDYWGQGTLVTVSS
VL: DIVMTQSPLSLPVTPGEPVSISCRSSKSLLHSNANTYLYWFLQKPGQSPQLLIYRMSNLASGVPDRFSGSGSGTAFTLKISRVEAEDVGVYYCMQHLEYPFTFGQGTKLEIK
notes: Humanized 137D1H10
For B7, the Bottom [4] was 1320, the LogEC50 [4] was -0.484 and the Span [4] was 25900. It also gave a Top [4] of 27300, a Bottom [5] of 2240 and a LogEC50 [5] of -0.505. The Span [5] was 27900 and the Top [5] was 30200.

B8: 137-H3L3 (antibody, V domains shown)
VH: EVQLVESGGGLVQPGGSLKLSCAASGFTFNTYAMNWVRQASGKGLEWVARIRSKANNYATYYADSVKDRFTISRDDSKNTLYLQMNNLKTEDTAVYYCVRDRSRGEDYAMDYWGQGTLVTVSS
VL: DIVMTQSPLSLPVTPGEPVSISCRSSKSLLHSNANTYLYWFLQKPGQSPQLLIYRMSNLASGVPDRFSGSGSGTAFTLKISRVEAEDVGVYYCMQHLEYPFTFGQGTKLEIK
notes: Humanized 137D1H10
For B8, the Bottom [4] was 2100, the LogEC50 [4] was -0.717 and the Span [4] was 29800. It also gave a Top [4] of 31900, a Bottom [5] of 3820 and a LogEC50 [5] of -0.754. It also gave a Span [5] of 29600 and a Top [5] of 33400.

B9: 88-H3L2 (antibody, V domains shown)
VH: EVQLVESGGGLVQPGGSLKLSCAASGFTFNPNAMNWVRQASGKGLEWVARIRSKSNNYATYYADSVKDRFTISRDDSKNTLYLQMNNLKTEDTAVYYCVRGKDDGYRHYAMDYWGQGTTVTVSS
VL: DIVMTQSPLSLPVTPGEPASISCRSSKSLLHSNANTYLYWFLQKPGQSPQLLIYRMSNLASGVPDRFSGSGSGTAFTLKISRVEAEDVGVYYCMQHLEYPFTFGGGTKVEIK
notes: Humanized 88D2C6
With B9 the Bottom [6] was 3940, the LogEC50 [6] was -0.686 and the Span [6] was 28600. It also gave a Top [6] of 32500, a Bottom [7] of 2830 and a LogEC50 [7] of -0.684. The Span [7] was 24600 and the Top [7] was 27400.

B10: 88-H1L3 (antibody, V domains shown)
VH: EVQLVESGGGLVQPGGSLKLSCAASGFTFNPNAMNWVRQASGKGLEWVGRIRSKSNNYATYYADSVKDRFTISRDDSKNTAYLQMNSLKTEDTAVYYCTRGKDDGYRHYAMDYWGQGTTVTVSS
VL: DIVMTQAPLSLPVTPGEPVSISCRSSKSLLHSNANTYLYWFLQKPGQSPQLLIYRMSNLASGVPDRFSGSGSGTAFTLKISRVEAEDVGVYYCMQHLEYPFTFGGGTKLEIK
notes: Humanized 88D2C6
With B10 the Bottom [6] was 2140, the LogEC50 [6] was -0.519 and the Span [6] was 29800. The Top [6] was 31900, the Bottom [7] was 1540 and the LogEC50 [7] was -0.58. The Span [7] was 26100 and the Top [7] was 27600.

B11: 88-H1L2 (antibody, V domains shown)
VH: EVQLVESGGGLVQPGGSLKLSCAASGFTFNPNAMNWVRQASGKGLEWVGRIRSKSNNYATYYADSVKDRFTISRDDSKNTAYLQMNSLKTEDTAVYYCTRGKDDGYRHYAMDYWGQGTTVTVSS
VL: DIVMTQSPLSLPVTPGEPASISCRSSKSLLHSNANTYLYWFLQKPGQSPQLLIYRMSNLASGVPDRFSGSGSGTAFTLKISRVEAEDVGVYYCMQHLEYPFTFGGGTKVEIK
notes: Humanized 88D2C6
B11 was tested, and the Bottom [6] was 2670, the LogEC50 [6] was -0.751 and the Span [6] was 30100. The Top [6] was 32800, the Bottom [7] was 2110 and the LogEC50 [7] was -0.678. The Span [7] was 26800 and the Top [7] was 28900.

B12: 88D2C6 (fused to human IgG1 constant regions, with ADCC-activating mutations in Fc) (antibody, V domains shown)
VH: EVQLVETGGGLVQPKGSLKLSCAASGFTFNPNAMNWVRQAPGKGLEWVARIRSKSNNYATYYADSVKDRFTISRDDSQSMLYLQMNNLKTEDTAMYYCVRGKDDGYRHYAMDYWGQGTSVTVSS
VL: DIVMTQAAPSVPVTPGESVSISCRSSKSLLHSNGNTYLYWFLQRPGQSPQLLIYRMSNLASGVPDRFSGSGSGTAFTLRISRVEAEDVGVYYCMQHLEYPFTFGAGTKLELK
In the case of B12, the “ADCC EC50 (CCR8-overexpressing CHO K1 cells)” value [3] is reported as 17.4 pM.

B13: 88-xi (antibody, V domains shown)
VH: EVQLVETGGGLVQPKGSLKLSCAASGFTFNPNAMNWVRQAPGKGLEWVARIRSKSNNYATYYADSVKDRFTISRDDSQSMLYLQMNNLKTEDTAMYYCVRGKDDGYRHYAMDYWGQGTSVTVSS
VL: DIVMTQAAPSVPVTPGESVSISCRSSKSLLHSNGNTYLYWFLQRPGQSPQLLIYRMSNLASGVPDRFSGSGSGTAFTLRISRVEAEDVGVYYCMQHLEYPFTFGAGTKLELK
notes: also called 88D2C6; chimeric 88D2C6
B13 showed a Bottom [6] of 3630, a LogEC50 [6] of -0.655 and a Span [6] of 30300. It also gave a Top [6] of 33900, a Bottom [7] of 1030 and a LogEC50 [7] of -0.692. It also gave a Span [7] of 28600 and a Top [7] of 29700.
